Experimental data published in patent US20260241035A1, “FUNCTIONAL NUCLEIC ACID MOLECULE AND METHOD” (THE UNIVERSITY COURT OF THE UNIVERSITY OF EDINBURGH, priority 2022, published 2026).

System: GSC7 cells
Experiment: Nano-Glo Dual-Luciferase Reporter (Nanoglo DLR) assay of enhancer activity, fold change to mCMV
Format: cell-based, human
Conditions: expression fold change of the individual enhancer compared to mCMV
Text: We chose an arrayed library format, with 160 bp enhancer fragments individually cloned into separate plasmids and arrayed in 96 well plates. These 160 bp were synthesized as a single pool of oligos, then randomly cloned into the plasmid and isolated. 20 bp×2 were needed for PCR amplification of the pool and so a library of 200 bp fragments was synthesized (Twist Biosciences). To meet our oligo synthesis strategy, ChIP-seq peaks expressed by GSCs were merged into a single oligo. This oligonucleotide pool was PCR-amplified (using limited cycles to reduce bias and ‘jackpot’ products meaning products which are easier to amplify will overtake the oligonucleotide pool) and cloned into the expression vector by an efficient Golden Gate reaction. 4579 individual plasmids were then randomly picked, isolated and plated as an arrayed plasmid DNA library on 96 well plates (×48). The bacterial colony picking and production of plasmid minipreps were supported by the Edinburgh Genome Foundry (S. Rosser). This library was then screened using the optimised Nanoglo DLR assay (Nano-Glo Dual-Luciferase Reporter Assay, Promega) in 384 well format. Each plate was transiently transfected together with PGK-FFLuc in a 1:10 ratio into GSC7 cells. 2 days later a Nanoglo DLR assay was performed and assayed on a plate reader.
Cells were seeded in 384 well plates using a multidrop and transfected the following day using the CyBio Felix. Two days later the experiment was terminated with a Nanoglo DLR assay and all hits with a fold change to mCMV greater than 10 were Sanger sequenced and mapped back to the genome.
Cells were seeded at the required density. The following day the transfection was carried out. For this the Plus reagent and Lipofectamine LTX (Life Technologies, 15338030) were each diluted in half the volume of Opti-MEM I Reduced-Serum Medium (further referred to as Optimem) (Life Technologies, 31985062). Following this step, the Plus reagent/Optimem premix was added to all DNA samples followed by the Lipofectamine LTX/Optimem premix. The transfection mix was incubated for 5 min at room temperature and then carefully dropped on the cells. Generally, no media change was carried out. Cells were analysed two days following transfection.
This assay consists of two steps. The transfection was carried out using a normalisation plasmid PGK-Firefly-Luciferase (Promega, E5011) that was transfected in a 1/10 ratio with the plasmid of interest. First, the Firefly Luciferase activity is measured which allows to normalise to transfection efficiency. In a second step, the activity of Nanoluc is determined which is the readout of the plasmid of interest. Cells were washed 3× with PBS and 20 μl was left in the 96 well plate after the final wash (25 μl in 384 well). Oneglo buffer was added and the plate was shaken for 5 min at 480 rpm to allow cell lysis. 20 μl cell lysate in 96 well format or 25 μl cell lysate in 384 well format was then transferred into the corresponding opaque white plate and luminescence was measured at for 0.1 s per well using the Ensight Multimode Plate Reader. For the following Nanoluc reaction in a 96 well format 2 μl cell lysate was transferred into an opaque white plate containing 40 μl PBS, and 20 μl Stopglo buffer, supplemented with substrate, was added to each well. In a 384 well format 20 μl Stopglo buffer containing substrate were added on top of the undiluted cell lysate. The plate was shaken again for 5 min at 480 rpm to quench the firefly luciferase reaction and ensure good mixing. Nanoluc activity was measured for 0.1 s per well, again using Ensight Multimode Plate Reader.
Data obtained by the Nanoluc reaction was normalised to Firefly reaction to account for well-to-well variability of transfection efficiency. Normalised data were used to calculate the fold change to the empty vector control mCMV.

Molecule | Fold change (Median) [fold]
CSE012: clustered SOX dimer motif enhancer, SEQ ID NO: 40 (nucleic acid) DNA: GTAGAGAATAGATTCTGTAGGGCTTTTAACCTCCACTGTTATTCCAAGGATGGGGCTCAGCTTCCTTCTTTTCCTTTCTGACTCTGTCTATATCAAGGGTCCCGTGGGTTGTTCCTTTCCATTGTGGTCTCACTGCCCAGCTTTAAGGCACCATCCTGGCACAGTGATAGGTTTACCTTTGTCTAAAAGTGTCCATTTGCATCTCTGTGGCCTTCTTGCCTGGGTGACACCCACTTGATTAGGCATTTGCCCAGTGTGAGATCAGAGTCCCTCATTTACATTTCCCCACAATAGTGAATGGCTTACAGGCTGTTCAAATACAGTTTCTAAACAGTGAATAATTCAGCCAGAAAGCCAGCCTTTTAAGGTTTGGATTTGGGGCATTTCTGAG | 10.3
CSE078: clustered SOX dimer motif enhancer, SEQ ID NO: 43 (nucleic acid) DNA: TGTCGGGCAGCCAAGACCTGTCAGGGACAAGAGTGCTGTGAGCTGCGGGCTGGTGGGTGGAAGGAGAGAGGCCCCTGGTGCTCCTGCCAAGCCAAGGAATGTGTCATTGCTGTGCTGTGCCTTCAGCCTGGCATTTGGGAACAAAGAGGTACTTTGTATGGATAACATAGACCAGGTTGTTGGGGAAGGGATCAGAGATGGGGGTAGACCCATTTTTAAAAATCTGCTCATGTCCCAGGCAAGTTTTTTTGGCAGGGATTGCAGTTGGGCTATTACAAAGAGCTGCTGTACACGAGGGGTATGTCTACTACTGTCAAATTACAGCAGCAATTATCTTGGGCACTG | 10
CSE005: clustered SOX dimer motif enhancer, SEQ ID NO: 41 (nucleic acid) DNA: TCCCTTGGAAAGTGTTCAAATCAAAGCTACCTTTATACCACACTCCTTTGTGTCCTGATGTCCTGAATAGTGAGATTATCGGGTACACCCACCTGTTCCTGCACTTCCTTCCTGCTCAATTTAAATAAACAATGAGCTGTTTTTCTTCTTGACAAAGAGCCAGTCTATACAACAGCAGCAGGAAGATTACTTTCTATCTGTATGCAAACAGATACATAGCTGAGTTCTCTCCAATCCCCGGGAAAAGACCCTTTTAACTAAATGACTTATGCTTCT | 11.5
CSE034: clustered SOX dimer motif enhancer, SEQ ID NO: 42 (nucleic acid) DNA: GCCATAATTTGAACCTCGGAGTGCCCCACTGACAGCCAACGACACCAGAGGGTCCCTTTGTATGTAAGGATTGCATGACTCCAGTTGAATGACCCAAGCCGGGGACAAACAGGAAAGAACCCAGCAGCTCTGGAGGCCACTTGAGCTGACTGTCAAATGCTCTGGGCTGATTAACGACTACGAACTTCAGGGAAGACAAGTGTGCTTTGATGCCACAGAGCTATCCTGGGCCTGTACAGGCCCGTTTCTGCTCTGAATGAGGAAGCTGTACTTTGCAGGCACCCGGCAGAACAAGAATAGGGCCTAAGATACCTGAATGAAGGGCACAGAGGAAGTACAAAATACAGTCATTGTTGGAGCTAGAAGCTGGTGCCAGGCTACGAGGGGGCCCAGTGGCCAAGCATTATG | 14.3
ID4328: enhancer fragment, SEQ ID NO: 7 (nucleic acid) DNA: TACAATCTATTCTCCATAGTCATCAGAGTTTCTTTAAAGGCACGGTTCAGACAATGGCACCCTCTGTTCCAAACCCTCCAGGGCTTCCTATTTCACTTAGCATAAAAACCAAAGTCCTCACAATGACCGACAAGTCTTCACACAATGTGCCCCTTCATTG | 100.7
